The values below come from patent US20220306765A1.

For orientation: EC50 means the concentration at which the effect is half-maximal. A low value points to greater potency. One may read the Kd as the equilibrium constant for the complex coming apart.

One test concerns the target human CLDN18.2 (human). Description: flow cytometry on NCI-H146 cells; unit taken from the concentration axis; fit of the flat control curve.
The target of test [1] is human C1q (human) (UniProt P02745). The test can be described thus: BLI (Octet), biotinylated antibody on sensor, C1q in solution.
Test [2] concerns the target human FcγRIIIa-F176 (human) (UniProt P08637). The test can be described thus: BLI (Octet RED96), biotinylated receptor on SA sensor.
Test [3] has as its target human FcγRIIIa-V176 (human) (UniProt P08637). The description is as above.
Test [4] concerns the target Human FcRn (FCGRT&B2M) Protein (human) (UniProt P55899). Description: BLI (Octet), FcRn on sensor, pH 6.0. Background: BLI is a label-free optical method that tracks binding on a fibre tip over time.
For test [5], the target named is human C1q (human) (UniProt P02745). Description: BLI (Octet RED96), biotinylated antibody on SA sensor, C1q in solution.
Test [6] concerns the target Human FcRn (FCGRT&B2M) Protein (human) (UniProt P55899). Description: BLI (Octet RED96), His-tagged FcRn on Ni-NTA sensor, pH 6.0.
For test [7], the target named is human FcγRIIIb-NA2 (human) (UniProt O75015). The test can be described thus: BLI (Octet), receptor on sensor.
The target of test [8] is human FcγRIIIa-F176 (human) (UniProt P08637). Description: BLI (Octet), receptor on sensor.
Test [9] concerns the target human FcγRIIIa-V176 (human) (UniProt P08637). The test can be described thus: BLI (Octet), receptor on sensor.
Test [10] deals with human FcγRIIa-R167 (human) (UniProt P12318). The test can be described thus: BLI (Octet), receptor on sensor.
A further test addresses human FcγRIIb (human) (UniProt P31994). Description: BLI (Octet), receptor on sensor.
In a further test the target is human FcγRI (human) (UniProt P12314). The test can be described thus: BLI (Octet), receptor on sensor.
The target of test [11] is human FcγRIIa-H167 (human) (UniProt P12318). The test can be described thus: BLI (Octet), receptor on sensor.
In test [12] the target is human FcγRIIIb-NA1 (human) (UniProt O75015). The test can be described thus: BLI (Octet), receptor on sensor.
Sequence of human FcγRIIIb-NA1 (human) (O75015 other isoform, or with tags, fused parts or gaps limits assumed): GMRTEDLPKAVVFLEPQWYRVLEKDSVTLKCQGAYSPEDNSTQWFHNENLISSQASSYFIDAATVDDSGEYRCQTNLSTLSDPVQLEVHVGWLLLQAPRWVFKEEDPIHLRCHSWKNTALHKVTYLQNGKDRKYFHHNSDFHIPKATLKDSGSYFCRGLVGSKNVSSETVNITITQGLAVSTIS

Sequence of Human FcRn (FCGRT&B2M) Protein (human) (P55899 24-297 limits assumed, chain 1 of 2): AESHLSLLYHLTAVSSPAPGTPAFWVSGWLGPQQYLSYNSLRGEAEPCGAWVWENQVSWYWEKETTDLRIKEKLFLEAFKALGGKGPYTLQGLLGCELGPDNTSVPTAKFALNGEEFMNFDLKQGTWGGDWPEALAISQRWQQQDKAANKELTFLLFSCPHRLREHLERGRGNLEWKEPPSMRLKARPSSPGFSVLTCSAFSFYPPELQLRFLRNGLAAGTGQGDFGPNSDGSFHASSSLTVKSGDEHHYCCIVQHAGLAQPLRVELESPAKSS
Sequence of Human FcRn (FCGRT&B2M) Protein (human) (P61769 21-119 limits assumed, chain 2 of 2, further chain): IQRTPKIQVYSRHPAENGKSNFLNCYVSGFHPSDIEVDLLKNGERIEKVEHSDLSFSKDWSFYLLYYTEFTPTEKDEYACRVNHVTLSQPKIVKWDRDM
Sequence of human FcγRIIIa-V176 (human) (P08637 17-208 F176V limits assumed): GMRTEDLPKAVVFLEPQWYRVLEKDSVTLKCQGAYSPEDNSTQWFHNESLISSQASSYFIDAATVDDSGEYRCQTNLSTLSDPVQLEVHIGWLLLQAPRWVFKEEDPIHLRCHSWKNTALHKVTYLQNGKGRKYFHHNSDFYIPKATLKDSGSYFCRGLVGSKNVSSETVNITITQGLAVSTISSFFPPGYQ
Sequence of human FcγRIIIa-F176 (human) (P08637 17-208 limits assumed): as the sequence (P08637 17-208 F176V limits assumed) above, with V160F counted along it
Sequence of human C1q (human) (P02745 23-245, chain 1 of 3): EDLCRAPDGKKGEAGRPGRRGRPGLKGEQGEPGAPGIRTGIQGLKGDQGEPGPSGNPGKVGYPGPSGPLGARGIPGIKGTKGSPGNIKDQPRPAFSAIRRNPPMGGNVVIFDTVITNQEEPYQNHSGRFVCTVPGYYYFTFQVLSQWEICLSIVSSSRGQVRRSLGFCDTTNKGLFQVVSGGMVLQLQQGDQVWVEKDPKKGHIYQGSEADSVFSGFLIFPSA
Sequence of human C1q (human) (P02746 28-253, chain 2 of 3, further chain): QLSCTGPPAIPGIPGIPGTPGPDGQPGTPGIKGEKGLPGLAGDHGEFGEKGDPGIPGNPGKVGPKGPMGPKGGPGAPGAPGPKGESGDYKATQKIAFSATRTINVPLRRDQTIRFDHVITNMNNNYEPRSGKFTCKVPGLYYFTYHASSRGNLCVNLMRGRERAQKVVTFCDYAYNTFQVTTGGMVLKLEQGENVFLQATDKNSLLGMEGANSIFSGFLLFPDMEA
Sequence of human C1q (human) (P02747 29-245, chain 3 of 3, further chain): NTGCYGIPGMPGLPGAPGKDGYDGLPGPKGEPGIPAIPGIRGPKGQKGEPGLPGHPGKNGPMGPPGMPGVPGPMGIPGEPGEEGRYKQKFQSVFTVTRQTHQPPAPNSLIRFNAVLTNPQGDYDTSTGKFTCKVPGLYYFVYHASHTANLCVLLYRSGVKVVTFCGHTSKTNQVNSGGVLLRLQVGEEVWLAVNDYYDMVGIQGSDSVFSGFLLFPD
Sequence of human FcγRIIa-R167 (human) (P12318 36-218 H167R limits assumed): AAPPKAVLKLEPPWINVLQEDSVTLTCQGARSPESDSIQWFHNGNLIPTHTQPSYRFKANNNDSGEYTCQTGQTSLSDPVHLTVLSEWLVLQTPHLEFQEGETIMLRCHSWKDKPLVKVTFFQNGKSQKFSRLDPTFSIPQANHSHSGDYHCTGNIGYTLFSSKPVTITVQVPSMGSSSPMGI
Sequence of human FcγRI (human) (P12314 16-288 limits assumed): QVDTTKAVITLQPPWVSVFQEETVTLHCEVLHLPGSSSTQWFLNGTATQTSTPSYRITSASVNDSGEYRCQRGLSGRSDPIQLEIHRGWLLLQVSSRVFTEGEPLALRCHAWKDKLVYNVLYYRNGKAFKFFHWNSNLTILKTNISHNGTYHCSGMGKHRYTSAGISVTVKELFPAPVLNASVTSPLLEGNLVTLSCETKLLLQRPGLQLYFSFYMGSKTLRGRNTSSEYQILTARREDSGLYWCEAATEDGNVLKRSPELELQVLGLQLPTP
Sequence of human FcγRIIIb-NA2 (human) (O75015 17-200 N65S limits assumed): as the sequence (O75015 other isoform, or with tags, fused parts or gaps limits assumed) above, with R20S, N49S, D66N, V90I counted along it
Sequence of human FcγRIIb (human) (P31994 46-217 limits assumed): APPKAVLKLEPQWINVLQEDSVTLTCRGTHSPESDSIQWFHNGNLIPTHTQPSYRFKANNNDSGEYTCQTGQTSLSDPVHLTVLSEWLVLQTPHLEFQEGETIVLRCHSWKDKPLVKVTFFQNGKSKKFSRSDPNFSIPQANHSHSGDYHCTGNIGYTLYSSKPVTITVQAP
Sequence of human FcγRIIa-H167 (human) (P12318 36-218 limits assumed): as the sequence (P12318 36-218 H167R limits assumed) above, with R132H counted along it

In the test with human CLDN18.2 (human), Isotype Control (antibody) showed an EC50 of 3.67 µg/mL.

As for IMAB362 (antibody), the Kd with human C1q (human) [1] is 21.5 nM; in test [2], 232 nM; in test [3], 61.5 nM; in test [4], 10.5 nM; with human C1q (human) [5], 21.5 nM; in [6], 10.5 nM. In addition, the Kd in test [7] turned out to be 3160 nM; in test [8] it was 232 nM; in test [9] it was 61.5 nM; in test [10], 117 nM; in the test with human FcγRIIb (human) it was 230 nM; in the test with human FcγRI (human), 5.22 nM. Further, the Kd in [11] was determined as 193 nM; in [12], 3970 nM.
